Source: publication PMC11414720, “Molecular basis of TMED9 oligomerization and entrapment of misfolded protein cargo in the early secretory pathway” (Science Advances, 2024)
“And” between values parts separate entries of the source, which are not always exact repeats. Equal values may be shown once.

Key:
[1] = biological target: the molecule itself; assay: cryo-EM structure; purified TMED9 at 1.7 mg/ml in 20 mM tris pH 8.0, 150 mM NaCl, 0.02% LMNG+CHS; octamer refined with C2 symmetry, dodecamer with no symmetry
[2] = biological target: the molecule itself; assay: SEC; gel filtration of overexpressed protein in octyl-β-glucoside, a harsher detergent
[3] = biological target: the molecule itself; assay: mass photometry; Refeyn TwoMP; samples in 0.003% LMNG, 0.0003% CHS diluted from 7 μM into 25 mM Hepes pH 7.4, 150 mM KCl, 1 mM DTT, measured within 10 s
[4] = biological target: the molecule itself; assay: SEC; Superose 6 gel filtration of TMED9 purified on anti-FLAG resin in LMNG+CHS (20 mM tris pH 8.0, 150 mM NaCl); solubilization by digitonin or glyco-diosgenin gave a similar size distribution

Row | Protein | binding result [4] | binding result [3] | further results
1 | full-length human TMED9 (transmembrane emp24 domain 9), FLAG-tagged (receptor, UniProt Q9BVK6 38-235, looked up, TMED9 (transmembrane emp24 domain 9), human, full length; Seen as octamer, dodecamer and higher-order oligomers; the rows are of the chain with itself; TMED9 has a signal peptide; No cleavage of the tag is described; also called WT TMED9; recombinant TMED9; source: Expi293F, transiently transfected, purified in LMNG+CHS (anti-FLAG resin, Superose 6 gel filtration); not shown: FLAG, N-terminal, …) LYFHIGETEKKCFIEEIPDETMVIGNYRTQLYDKQREEYQPATPGLGMFVEVKDPEDKVILARQYGSEGRFTFTSHTPGEHQICLHSNSTKFSLFAGGMLRVHLDIQVGEHANDYAEIAAKDKLSELQLRVRQLVEQVEQIQKEQNYQRWREERFRQTSESTNQRVLWWSILQTLILVAIGVWQMRHLKSFFEAKKLV | – | – | stoichiometry N [1]: 8 and 12; stoichiometry N [2]: 2; stoichiometry N [3]: ≥ 8
2 | TMED9 R191E (receptor, human, UniProt Q9BVK6 38-235, looked up, TMED9, human, mutant of the full-length protein; also called CC interface mutation R191E) LYFHIGETEKKCFIEEIPDETMVIGNYRTQLYDKQREEYQPATPGLGMFVEVKDPEDKVILARQYGSEGRFTFTSHTPGEHQICLHSNSTKFSLFAGGMLRVHLDIQVGEHANDYAEIAAKDKLSELQLRVRQLVEQVEQIQKEQNYQRWREEEFRQTSESTNQRVLWWSILQTLILVAIGVWQMRHLKSFFEAKKLV | binds | – | –
3 | TMED9 Q177A (receptor, human, UniProt Q9BVK6 38-235, looked up, TMED9, human, mutant of the full-length protein; also called CC interface mutation Q177A) LYFHIGETEKKCFIEEIPDETMVIGNYRTQLYDKQREEYQPATPGLGMFVEVKDPEDKVILARQYGSEGRFTFTSHTPGEHQICLHSNSTKFSLFAGGMLRVHLDIQVGEHANDYAEIAAKDKLSELQLRVRQLVEQVEAIQKEQNYQRWREERFRQTSESTNQRVLWWSILQTLILVAIGVWQMRHLKSFFEAKKLV | binds | – | –
4 | TMED9 R223E (for gel filtration and mass photometry) (receptor, human, UniProt Q9BVK6 38-235, looked up, TMED9, human, mutant of the full-length protein) LYFHIGETEKKCFIEEIPDETMVIGNYRTQLYDKQREEYQPATPGLGMFVEVKDPEDKVILARQYGSEGRFTFTSHTPGEHQICLHSNSTKFSLFAGGMLRVHLDIQVGEHANDYAEIAAKDKLSELQLRVRQLVEQVEQIQKEQNYQRWREERFRQTSESTNQRVLWWSILQTLILVAIGVWQMEHLKSFFEAKKLV | – | binds | –
5 | TMED9 W205A (receptor, human, UniProt Q9BVK6 38-235, looked up, TMED9, human, mutant of the full-length protein; also called CC interface mutation W205A) LYFHIGETEKKCFIEEIPDETMVIGNYRTQLYDKQREEYQPATPGLGMFVEVKDPEDKVILARQYGSEGRFTFTSHTPGEHQICLHSNSTKFSLFAGGMLRVHLDIQVGEHANDYAEIAAKDKLSELQLRVRQLVEQVEQIQKEQNYQRWREERFRQTSESTNQRVLAWSILQTLILVAIGVWQMRHLKSFFEAKKLV | binds | – | –
6 | TMED9 E190R (receptor, human, UniProt Q9BVK6 38-235, looked up, TMED9, human, mutant of the full-length protein; also called CC domain mutation E190R) LYFHIGETEKKCFIEEIPDETMVIGNYRTQLYDKQREEYQPATPGLGMFVEVKDPEDKVILARQYGSEGRFTFTSHTPGEHQICLHSNSTKFSLFAGGMLRVHLDIQVGEHANDYAEIAAKDKLSELQLRVRQLVEQVEQIQKEQNYQRWRERRFRQTSESTNQRVLWWSILQTLILVAIGVWQMRHLKSFFEAKKLV | – | binds | –
